Measurements taken from patent US20200339692A1 (JIANGSU HENGRUI MEDICINE, published 2020).
Like-named read-outs stand apart in the source and are kept apart here. Blank lines part the entries; values can stand above or below the binder they belong to.

Legend:
[1] = biological target: T1, human PD-L1 (Cat. #10084-H08H, Sino Biological) (human, UniProt Q9NZQ7 19-239); test: SPR, Biacore X100, 1:1 Langmuir
T1 construct: Bought recombinant protein used in the Biacore test; also called hPDL1; hPD-L1
T1 sequence (Q9NZQ7 19-239 limits assumed): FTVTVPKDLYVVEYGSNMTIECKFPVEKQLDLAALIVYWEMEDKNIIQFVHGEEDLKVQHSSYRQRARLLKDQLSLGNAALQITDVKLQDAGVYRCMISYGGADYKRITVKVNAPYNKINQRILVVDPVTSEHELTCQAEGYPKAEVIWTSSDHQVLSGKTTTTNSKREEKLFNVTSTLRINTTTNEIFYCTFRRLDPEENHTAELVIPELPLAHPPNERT
Method: (§1) According to the method in the manual of human anti-capture kit (Cat. A BR-1008-39, GE), the human anti-capture antibody was covalently coupled to biosensor chip CM5 (Cat. #BR-1000-12, GE) so that a certain amount of human PD-L1 (Cat. #10084-H08H, Sino Biological) monkey PD-L1 (Cat. #90251-C08H, Sino Biological), mouse PD-L1 (Cat. #50010-M08H, Sino Biological) were affinity captured. The affinity of PD-L1 antibody reacting with PD-L1 was measured with Biacore X100, GE instrument.

[2] = biological target: T2, mouse PD-L1 (Cat. #50010-M08H, Sino Biological) (mouse, UniProt Q9EP73 19-238); test: SPR, Biacore X100, 1:1 Langmuir
T2 construct: Bought recombinant protein used in the Biacore test
T2 sequence (Q9EP73 19-238 limits assumed, stated change not applied): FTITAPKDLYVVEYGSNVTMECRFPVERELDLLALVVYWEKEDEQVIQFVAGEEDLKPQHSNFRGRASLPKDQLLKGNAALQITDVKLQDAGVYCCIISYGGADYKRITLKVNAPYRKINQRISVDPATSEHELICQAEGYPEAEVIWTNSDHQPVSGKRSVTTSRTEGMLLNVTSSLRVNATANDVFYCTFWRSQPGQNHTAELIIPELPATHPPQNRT
Method: as §1

[3] = biological target: T1, human PD-L1 (Cat. #10084-H08H, Sino …); test: SPR, Biacore X100, 1:1 Langmuir; remark: listed apart in the source
Method: as §1

[4] = biological target: T3, monkey PD-L1 (Cat. #90251-C08H, Sino Biological) (monkey (cyno), UniProt G7PSE7 19-239); test: SPR, Biacore X100, 1:1 Langmuir
T3 construct: Bought recombinant protein used in the Biacore test; also called Monkey (cyno) PD-L1; Cyno PDL1
T3 sequence (G7PSE7 entry or part of it C08H C08H): as the sequence (Q9NZQ7 19-239 limits assumed) above, with A33T, A34S, S62N, R68Q, Q82R, F173L, T185A, T192I, H215L counted along it
Method: as §1

[5] = biological target: T3, monkey PD-L1 (Cat. #90251-C08H, Sino …); test: SPR, Biacore X100, 1:1 Langmuir; remark: listed apart in the source
Method: as §1

[6] = biological target: T4, human PD-L1 (ligand blocking test) (human, UniProt Q9NZQ7 19-238, limits assumed); test: blocking of human PD-L1/PD-1 binding, PD-L1 10 ug/ml; competitor PD-1
T4 sequence (Q9NZQ7 19-238 limits assumed): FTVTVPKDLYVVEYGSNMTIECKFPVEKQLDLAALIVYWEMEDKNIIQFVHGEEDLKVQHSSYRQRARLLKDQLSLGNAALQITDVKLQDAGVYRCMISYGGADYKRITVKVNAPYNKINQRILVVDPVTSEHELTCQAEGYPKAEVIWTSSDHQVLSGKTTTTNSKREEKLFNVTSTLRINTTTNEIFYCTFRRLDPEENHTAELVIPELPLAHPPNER

[7] = biological target: T4, human PD-L1 (ligand blocking test); test: blocking of B7-1 binding to human PD-L1, PD-L1 1 ug/ml; competitor B7-1

B1: H7L11 (antibody, human IgG1, kappa, V domains shown)
VH: QVQLQESGPGLVKPSQTLSLTCTVSGGSISNDYWTWIRQHPGKGLEYIGMISVAGSTYHTPSLKGRVTISRDTSKNQFSLKLSSVTAADTAVYYCARSGGWLAPFDYWGRGTLVTVSS
VL: DIVMTQSPDSLAVSLGERATINCKSSQSLFYHSNQKHSLAWYQQKPGQPPKLLIYGASTRESGVPDRFSGSGSGTDFTLTISSLQAEDVAVYYCQQYYGYPYTFGGGTKVEIKR
notes: also called 9-2 H7 and 9-2 L11
- Kd [1]: 1.39 nM
- koff [1]: 0.000389 s⁻¹
- kon [1]: 281000 M⁻¹ s⁻¹
- Kd [2]: 135 nM
- koff [2]: 0.0182 s⁻¹
- kon [2]: 135000 M⁻¹ s⁻¹

B2: H21L67 (antibody, human IgG1, kappa, V domains shown)
VH: QVQLVQSGAEVKKPGASVKVSCKASGYTFTDKWMMWVRQAPGQGLEWMGRITPSSGFAMYNEKFKNRVTMTRDTSTSTVYMELSSLRSEDTAVYYCARGGSSYDYFDYWGQGTTVTVSS
VL: DIVLTQSPASLAVSPGQRATITCRASESVSIHGTHLMHWYQQKPGQPPKLLIYVASNVESGVPARFSGSGSGTDFTLTINPVEAEDTANYYCQQSFEDPLTFGQGTKLEIKR
notes: also called 24D5 H21 and 24D5 L67
- Kd [3]: 0.0522 nM
- koff [3]: 0.00012 s⁻¹
- kon [3]: 2.3e+06 M⁻¹ s⁻¹
- Kd [4]: 0.0528 nM
- koff [4]: 0.000124 s⁻¹
- kon [4]: 2.35e+06 M⁻¹ s⁻¹

B3: H12L61 (antibody, human IgG1, kappa, V domains shown)
VH: QVQLVQSGAEVKKPGASVKVSCKASGYTFTSYWMHWVRQAPGQGLEWMGRITPSSGFAMYNEKFKNRVTMTRDTSTSTVYMELSSLRSEDTAVYYCARGGSSYDYFDYWGQGTTVTVSS
VL: DIVLTQSPASLAVSPGQRATITCRASESVSIHGTHLMHWYQQKPGQPPKLLIYAASNLESGVPARFSGSGSGTDFTLTINPVEAEDTANYYCQQSFEDPLTFGQGTKLEIKR
notes: also called 24D5 H12 and 24D5 L61
- Kd [1]: 0.0326 nM
- koff [1]: 7.1e-05 s⁻¹
- kon [1]: 2.18e+06 M⁻¹ s⁻¹

B4: H16L61 (antibody, human IgG1, kappa)
heavy: not shown
light: DIVLTQSPASLAVSPGQRATITCRASESVSIHGTHLMHWYQQKPGQPPKLLIYAASNLESGVPARFSGSGSGTDFTLTINPVEAEDTANYYCQQSFEDPLTFGQGTKLEIKRTVAAPSVFIFPPSDEQLKSGTASVVCLLNNFYPREAKVQWKVDNALQSGNSQESVTEQDSKDSTYSLSSTLTLSKADYEKHKVYACEVTHQGLSSPVTKSFNRGEC
notes: also called 24D5 H16 and 24D5 L61
- Kd [1]: 0.0254 nM
- koff [1]: 6.43e-05 s⁻¹
- kon [1]: 2.53e+06 M⁻¹ s⁻¹

B7: H12L64 (antibody, human IgG1, kappa, V domains shown)
VH: QVQLVQSGAEVKKPGASVKVSCKASGYTFTSYWMHWVRQAPGQGLEWMGRITPSSGFAMYNEKFKNRVTMTRDTSTSTVYMELSSLRSEDTAVYYCARGGSSYDYFDYWGQGTTVTVSS
VL: DIVLTQSPASLAVSPGQRATITCRASESVSIHGTHLMHWYQQKPGQPPKLLIYVASYAASGVPARFSGSGSGTDFTLTINPVEAEDTANYYCQQSFEDPLTFGQGTKLEIKR
notes: from the HRP00052 mutant library; also called 24D5 H12 and 24D5 L64
- Kd [1]: 0.0326 nM
- koff [1]: 7.1e-05 s⁻¹
- kon [1]: 2.18e+06 M⁻¹ s⁻¹
- Kd [5]: 0.0458 nM
- koff [5]: 8.38e-05 s⁻¹
- kon [5]: 1.83e+06 M⁻¹ s⁻¹
- IC50 [6]: 0.215 ng/mL
- IC50 [7]: 0.826 ng/mL

B9: H13L61 (antibody, human IgG1, kappa)
heavy: not shown
light: DIVLTQSPASLAVSPGQRATITCRASESVSIHGTHLMHWYQQKPGQPPKLLIYAASNLESGVPARFSGSGSGTDFTLTINPVEAEDTANYYCQQSFEDPLTFGQGTKLEIKRTVAAPSVFIFPPSDEQLKSGTASVVCLLNNFYPREAKVQWKVDNALQSGNSQESVTEQDSKDSTYSLSSTLTLSKADYEKHKVYACEVTHQGLSSPVTKSFNRGEC
notes: also called 24D5 H13 and 24D5 L61
- Kd [1]: 0.0261 nM
- koff [1]: 6.66e-05 s⁻¹
- kon [1]: 2.55e+06 M⁻¹ s⁻¹

B10: H15L61 (antibody, human IgG1, kappa, V domains shown)
VH: QVQLVQSGAEVKKPGASVKVSCKANGYTFTDKWMMWVRQAPGQGLEWMGRITPSSGFAMYNEKFKNRVTMTRDTSTSTVYMELSSLRSEDTAVYYCARGGSSYDYFDYWGQGTTVTVSS
VL: DIVLTQSPASLAVSPGQRATITCRASESVSIHGTHLMHWYQQKPGQPPKLLIYAASNLESGVPARFSGSGSGTDFTLTINPVEAEDTANYYCQQSFEDPLTFGQGTKLEIKR
notes: also called 24D5 H15 and 24D5 L61
- Kd [1]: 0.0325 nM
- koff [1]: 7.88e-05 s⁻¹
- kon [1]: 2.43e+06 M⁻¹ s⁻¹

B12: H14L61 (antibody, human IgG1, kappa, V domains shown)
VH: QVQLVQSGAEVKKPGASVKVSCKASGYTFTSYWMHWVRQAPGQGLEWMGRIHPSLGLPLYNEKFKNRVTMTRDTSTSTVYMELSSLRSEDTAVYYCARGGSSYDYFDYWGQGTTVTVSS
VL: DIVLTQSPASLAVSPGQRATITCRASESVSIHGTHLMHWYQQKPGQPPKLLIYAASNLESGVPARFSGSGSGTDFTLTINPVEAEDTANYYCQQSFEDPLTFGQGTKLEIKR
notes: also called 24D5 H14 and 24D5 L61
- Kd [1]: 0.038 nM
- koff [1]: 9.1e-05 s⁻¹
- kon [1]: 2.4e+06 M⁻¹ s⁻¹

Second part, the binder after the results:

- Kd [1]: 0.0327 nM
- koff [1]: 7.65e-05 s⁻¹
- kon [1]: 2.34e+06 M⁻¹ s⁻¹
B5: H19L61 (antibody, human IgG1, kappa, V domains shown)
VH: QVQLVQSGAEVKKPGASVKVSCKASGYTFTSYWMHWVRQAPGQGLEWMGRISPGGGFTLYNEKFKNRVTMTRDTSTSTVYMELSSLRSEDTAVYYCARGGSSYDYFDYWGQGTTVTVSS
VL: DIVLTQSPASLAVSPGQRATITCRASESVSIHGTHLMHWYQQKPGQPPKLLIYAASNLESGVPARFSGSGSGTDFTLTINPVEAEDTANYYCQQSFEDPLTFGQGTKLEIKR
notes: also called 24D5 H19 and 24D5 L61

- Kd [1]: 0.0393 nM
- koff [1]: 9.53e-05 s⁻¹
- kon [1]: 2.43e+06 M⁻¹ s⁻¹
B6: H17L61 (antibody, human IgG1, kappa, V domains shown)
VH: QVQLVQSGAEVKKPGASVKVSCKASGYTFTSYWMHWVRQAPGQGLEWMGRIGPNLGWAMYNEKYKNRVTMTRDTSTSTVYMELSSLGSEDTAVYYCARGGSSYDYFDYWGQGTTVTVSS
VL: DIVLTQSPASLAVSPGQRATITCRASESVSIHGTHLMHWYQQKPGQPPKLLIYAASNLESGVPARFSGSGSGTDFTLTINPVEAEDTANYYCQQSFEDPLTFGQGTKLEIKR
notes: also called 24D5 H17 and 24D5 L61

- Kd [3]: 0.0533 nM
- koff [3]: 0.000104 s⁻¹
- kon [3]: 1.95e+06 M⁻¹ s⁻¹
- Kd [4]: 0.0563 nM
- koff [4]: 0.000122 s⁻¹
- kon [4]: 2.17e+06 M⁻¹ s⁻¹
B8: H21L66 (antibody, human IgG1, kappa, V domains shown)
VH: QVQLVQSGAEVKKPGASVKVSCKASGYTFTDKWMMWVRQAPGQGLEWMGRITPSSGFAMYNEKFKNRVTMTRDTSTSTVYMELSSLRSEDTAVYYCARGGSSYDYFDYWGQGTTVTVSS
VL: DIVLTQSPASLAVSPGQRATITCRASESVSIHGTHLMHWYQQKPGQPPKLLIYVASNVFSGVPARFSGSGSGTDFTLTINPVEAEDTANYYCQQSFEDPLTFGQGTKLEIKR
notes: also called 24D5 H21 and 24D5 L66

- Kd [3]: 0.0563 nM
- koff [3]: 0.000129 s⁻¹
- kon [3]: 2.29e+06 M⁻¹ s⁻¹
- Kd [4]: 0.0526 nM
- koff [4]: 0.000119 s⁻¹
- kon [4]: 2.27e+06 M⁻¹ s⁻¹
B11: H21L69 (antibody, human IgG1, kappa, V domains shown)
VH: QVQLVQSGAEVKKPGASVKVSCKASGYTFTDKWMMWVRQAPGQGLEWMGRITPSSGFAMYNEKFKNRVTMTRDTSTSTVYMELSSLRSEDTAVYYCARGGSSYDYFDYWGQGTTVTVSS
VL: DIVLTQSPASLAVSPGQRATITCRASESVSIHGTHLMHWYQQKPGQPPKLLIYVASNVYSGVPARFSGSGSGTDFTLTINPVEAEDTANYYCQQSFEDPLTFGQGTKLEIKR
notes: also called 24D5 H21 and 24D5 L69

- IC50 [6]: 0.338 ng/mL
- IC50 [7]: 1.65 ng/mL
B13: HRP00052-IgG1 (antibody)
heavy: not shown
light: DIVLTQSPASLAVSPGQRATITCRASESVSIHGTHLMHWYQQKPGQPPKLLIYAASNLESGVPARFSGSGSGTDFTLTINPVEAEDTANYYCQQSFEDPLTFGQGTKLEIKRTVAAPSVFIFPPSDEQLKSGTASVVCLLNNFYPREAKVQWKVDNALQSGNSQESVTEQDSKDSTYSLSSTLTLSKADYEKHKVYACEVTHQGLSSPVTKSFNRGEC
